Results published in PMC2865183 (Nature chemical biology, 2009).

Target: the molecule itself
Experiment: SEC

B1: VVD-36 M135I:M165I (domain or fragment, UniProt Q9C3Y6 37-186, looked up)
chain: HTLYAPGGYDIMGYLIQIMNRPNPQVELGPVDTSCALILCDLKQKDTPIVYASEAFLYMTGYSNAEVLGRNCRFLQSPDGMVKPKSTRKYVDSNTINTIRKAIDRNAEVQVEVVNFKKNGQRFVNFLTIIPVRDETGEYRYSMGFQCETE
  fold increase in dimer affinity (against VVD-36): > 5 fold
